Reference: article PMC5320007, “PpEst is a novel PBAT degrading polyesterase identified by proteomic screening of Pseudomonas pseudoalcaligenes” (Applied Microbiology and Biotechnology, 2016)

Tests used:
PpEst = biological target: T1, PpEst (Ectopseudomonas oleovorans, UniProt W6R2Y2); test: 4-NPB hydrolysis inhibition, […] nm; assay type: biochemical
T1 construct: gene tesA

purified protein = substrate: CCCC(=O)Oc1ccc([N+](=O)[O-])cc1; test: purified protein; assay type: biochemical, Ectopseudomonas oleovorans; conditions: 20 mM Tris-HCl pH 8.0, 150 mM NaCl, 0.1% Triton X-100, 25 °C, 'Exponential Rise to maximum' fit

Molecule | Ki (PpEst) [µM] | Km (purified protein) [mM] | kcat (purified protein) [s⁻¹]
O=C(O)c1ccc(C(=O)OCCCCO)cc1 [BuTA, 4-(4-hydroxybutoxycarbonyl)benzoic acid] | 670 | – | –
PpEst (Ectopseudomonas oleovorans CECT 5344) (protein) GTLLVVGDSISAAFGLDSRQGWVALLEKRLSEEGFEHSVVNASISGDTSAGGAARLSALLAEHKPELVIIELGGNDGLRGQPPAQLQQNLASMVEQSQQAGAKVLLLGMKLPPNYGVRYTTAFAQVFTDLAEQKQVSLVPFFLEGVGGVPGMMQADGIHPAEAAQEILLDNVWPTLKPML | – | 4.85 | 1.98
